Measurements as given in patent US20160367623A1, “AGONISTS OF GUANYLATE CYCLASE USEFUL FOR THE TREATMENT OF GASTROINTESTINAL DISORDERS, INFLAMMATION, CANCER AND OTHER DISORDERS” (priority 2015, published 2016).
Bridge positions count the residues as written; N and C are the ends. Ends that are not written are not given here.

Test system: patients with chronic idiopathic constipation (CIC)
Experiment: Second phase 3 CIC trial: treatment emergent adverse events, safety

Asn^1-Asp^2-Glu^3-Cys^4-Glu^5-Leu^6-Cys^7-Val^8-Asn^9-Val^10-Ala^11-Cys^12-Thr^13-Gly^14-Cys^15-Leu^16 (NDECELCVNVACTGCL; disulfide 4-12, 7-15) [Plecanatide]
Infections and infestations, Severe: patients N (3 mg): 0 | Infections and infestations: events E (3 mg): 38 | Infections and infestations: patients % (3 mg): (7.3) % | Infections and infestations: patients N (3 mg): 34 | Influenza, Mild: events E (3 mg): 2 | Influenza, Mild: patients % (3 mg): (0.4) % | Influenza, Mild: patients N (3 mg): 2 | Influenza, Moderate: events E (3 mg): 0 | Influenza, Moderate: patients N (3 mg): 0 | Influenza, Severe: events E (3 mg): 0 | Influenza, Severe: patients N (3 mg): 0 | Influenza: events E (3 mg): 2 | Influenza: patients % (3 mg): (0.4) % | Influenza: patients N (3 mg): 2 | Injury, poisoning and procedural complications, Mild: events E (3 mg): 6 | Injury, poisoning and procedural complications, Mild: patients % (3 mg): (0.9) % | Injury, poisoning and procedural complications, Mild: patients N (3 mg): 4 | Ligament sprain, Mild: events E (3 mg): 1 | Ligament sprain, Mild: patients % (3 mg): (0.2) % | Ligament sprain, Mild: patients N (3 mg): 1 | Ligament sprain, Moderate: events E (3 mg): 1 | Ligament sprain, Moderate: patients % (3 mg): (0.2) % | Ligament sprain, Moderate: patients N (3 mg): 1 | Ligament sprain, Severe: events E (3 mg): 0 | Ligament sprain, Severe: patients N (3 mg): 0 | Ligament sprain: events E (3 mg): 2 | Ligament sprain: patients % (3 mg): (0.4) % | Ligament sprain: patients N (3 mg): 2 | Skeletal injury, Mild: events E (3 mg): 0 | Skeletal injury, Mild: patients N (3 mg): 0 | Skeletal injury, Moderate: events E (3 mg): 0 | Skeletal injury, Moderate: patients N (3 mg): 0 | Skeletal injury, Severe: events E (3 mg): 0 | Skeletal injury, Severe: patients N (3 mg): 0 | Skeletal injury: events E (3 mg): 0 | Skeletal injury: patients N (3 mg): 0 | Ileus: events (E) (3 mg (N = 467)): 0 | Infections and infestations (SOC): events E (3 mg (N = 467)): 38 | Infections and infestations (SOC): patients % (3 mg (N = 467)): (7.3) % | Infections and infestations (SOC): patients N (3 mg (N = 467)): 34 | Influenza like illness, Mild: events (E) (3 mg (N = 467)): 0 | Influenza like illness, Moderate: events (E) (3 mg (N = 467)): 0 | Influenza like illness, Severe: events (E) (3 mg (N = 467)): 0 | Influenza like illness: events (E) (3 mg (N = 467)): 0 | Influenza like illness: events E (3 mg (N = 467)): 0 | Influenza like illness: patients N (3 mg (N = 467)): 0 | Influenza: events E (3 mg (N = 467)): 2 | Influenza: patients % (3 mg (N = 467)): (0.4) % | Influenza: patients N (3 mg (N = 467)): 2 | Injury, poisoning and procedural complications (SOC): events E (3 mg (N = 467)): 10 | Nausea, Mild: events (E) (3 mg (N = 467)): 4 | Nausea, Mild: patients (%) (3 mg (N = 467)): (0.9) % | Nausea, Moderate: events (E) (3 mg (N = 467)): 0 | SAE Musculoskeletal and connective tissue disorders, E events (3 mg (N = 467)): 0 | SAE Musculoskeletal and connective tissue disorders, N patients (3 mg (N = 467)): 0 | SAE Musculoskeletal and connective tissue disorders, No Reasonable Possibility, E events (3 mg (N = 467)): 0 | SAE Musculoskeletal and connective tissue disorders, No Reasonable Possibility, N patients (3 mg (N = 467)): 0 | SAE Musculoskeletal and connective tissue disorders, Reasonable Possibility, E events (3 mg (N = 467)): 0 | SAE Musculoskeletal and connective tissue disorders, Reasonable Possibility, N patients (3 mg (N = 467)): 0 | Infections and infestations, Severe: patients N (6 mg): 1 | Infections and infestations: events E (6 mg): 51 | Infections and infestations: patients % (6 mg): (9.2) % | Infections and infestations: patients N (6 mg): 43 | Influenza, Mild: events E (6 mg): 4 | Influenza, Mild: patients % (6 mg): (0.9) % | Influenza, Mild: patients N (6 mg): 4 | Influenza, Moderate: events E (6 mg): 3 | Influenza, Moderate: patients % (6 mg): (0.6) % | Influenza, Moderate: patients N (6 mg): 3 | Influenza, Severe: events E (6 mg): 0 | Influenza, Severe: patients N (6 mg): 0 | Influenza: events E (6 mg): 7 | Influenza: patients % (6 mg): (1.5) % | Influenza: patients N (6 mg): 7 | Injury, poisoning and procedural complications, Mild: events E (6 mg): 4 | Injury, poisoning and procedural complications, Mild: patients % (6 mg): (0.9) % | Injury, poisoning and procedural complications, Mild: patients N (6 mg): 4 | Ligament sprain, Mild: events E (6 mg): 0 | Ligament sprain, Mild: patients N (6 mg): 0 | Ligament sprain, Moderate: events E (6 mg): 0 | Ligament sprain, Moderate: patients N (6 mg): 0 | Ligament sprain, Severe: events E (6 mg): 0 | Ligament sprain, Severe: patients N (6 mg): 0 | Ligament sprain: events E (6 mg): 0 | Ligament sprain: patients N (6 mg): 0 | Skeletal injury, Mild: events E (6 mg): 0 | Skeletal injury, Mild: patients N (6 mg): 0 | Skeletal injury, Moderate: events E (6 mg): 0 | Skeletal injury, Moderate: patients N (6 mg): 0 | Skeletal injury, Severe: events E (6 mg): 1 | Skeletal injury, Severe: patients % (6 mg): (0.2) % | Skeletal injury, Severe: patients N (6 mg): 1 | Skeletal injury: events E (6 mg): 1 | Skeletal injury: patients % (6 mg): (0.2) % | Skeletal injury: patients N (6 mg): 1 | Ileus: events (E) (6 mg (N = 469)): 0 | Infections and infestations (SOC): events E (6 mg (N = 469)): 51 | Infections and infestations (SOC): patients % (6 mg (N = 469)): (9.2) % | Infections and infestations (SOC): patients N (6 mg (N = 469)): 43 | Influenza like illness, Mild: events (E) (6 mg (N = 469)): 1 | Influenza like illness, Mild: patients (%) (6 mg (N = 469)): (0.2) % | Influenza like illness, Moderate: events (E) (6 mg (N = 469)): 0 | Influenza like illness, Severe: events (E) (6 mg (N = 469)): 0 | Influenza like illness: events (E) (6 mg (N = 469)): 1 | Influenza like illness: events E (6 mg (N = 469)): 1 | Influenza like illness: patients % (6 mg (N = 469)): (0.2) % | Influenza like illness: patients (%) (6 mg (N = 469)): (0.2) % | Influenza like illness: patients N (6 mg (N = 469)): 1 | Influenza: events E (6 mg (N = 469)): 7 | Influenza: patients % (6 mg (N = 469)): (1.5) % | Influenza: patients N (6 mg (N = 469)): 7 | Injury, poisoning and procedural complications (SOC): events E (6 mg (N = 469)): 9 | Nausea, Mild: events (E) (6 mg (N = 469)): 3 | Nausea, Mild: patients (%) (6 mg (N = 469)): (0.6) % | Nausea, Moderate: events (E) (6 mg (N = 469)): 2 | Nausea, Moderate: patients (%) (6 mg (N = 469)): (0.4) % | SAE Musculoskeletal and connective tissue disorders, E events (6 mg (N = 469)): 0 | SAE Musculoskeletal and connective tissue disorders, N patients (6 mg (N = 469)): 0 | SAE Musculoskeletal and connective tissue disorders, No Reasonable Possibility, E events (6 mg (N = 469)): 0 | SAE Musculoskeletal and connective tissue disorders, No Reasonable Possibility, N patients (6 mg (N = 469)): 0 | SAE Musculoskeletal and connective tissue disorders, Reasonable Possibility, E events (6 mg (N = 469)): 0 | SAE Musculoskeletal and connective tissue disorders, Reasonable Possibility, N patients (6 mg (N = 469)): 0 | Influenza, Mild: events E (Active Combined): 6 | Influenza, Mild: patients % (Active Combined): (0.6) % | Influenza, Mild: patients N (Active Combined): 6 | Influenza, Moderate: events E (Active Combined): 3 | Influenza, Moderate: patients % (Active Combined): (0.3) % | Influenza, Moderate: patients N (Active Combined): 3 | Influenza, Severe: events E (Active Combined): 0 | Influenza, Severe: patients N (Active Combined): 0 | Influenza: events E (Active Combined): 9 | Influenza: patients % (Active Combined): (1.0) % | Influenza: patients N (Active Combined): 9 | Skeletal injury, Mild: events E (Active Combined): 0 | Skeletal injury, Mild: patients N (Active Combined): 0 | Skeletal injury, Moderate: events E (Active Combined): 0 | Skeletal injury, Moderate: patients N (Active Combined): 0 | Skeletal injury, Severe: events E (Active Combined): 1 | Skeletal injury, Severe: patients % (Active Combined): (0.1) % | Skeletal injury, Severe: patients N (Active Combined): 1 | Skeletal injury: events E (Active Combined): 1 | Skeletal injury: patients % (Active Combined): (0.1) % | Skeletal injury: patients N (Active Combined): 1 | Infections and infestations (SOC): events E (Active Combined (N = 936)): 89 | Infections and infestations (SOC): patients % (Active Combined (N = 936)): (8.2) % | Infections and infestations (SOC): patients N (Active Combined (N = 936)): 77 | Influenza like illness, Mild: events (E) (Active Combined (N = 936)): 1 | Influenza like illness, Mild: patients (%) (Active Combined (N = 936)): (0.1) % | Influenza like illness, Moderate: events (E) (Active Combined (N = 936)): 0 | Influenza like illness, Severe: events (E) (Active Combined (N = 936)): 0 | Influenza like illness: events (E) (Active Combined (N = 936)): 1
